# Reference: PMC10164912, “Exploration of O-GlcNAc transferase glycosylation sites reveals a target sequence compositional bias” (The Journal of Biological Chemistry, 2023)
# B1: TPR region of OGT (OGT-TPR, aa 2-474) fused to a SUMO tag (domain or fragment, human, UniProt O15294 2-474, looked up)
# chain: ASSVGNVADSTEPTKRMLSFQGLAELAHREYQAGDFEAAERHCMQLWRQEPDNTGVLLLLSSIHFQCRRLDRSAHFSTLAIKQNPLLAEAYSNLGNVYKERGQLQEAIEHYRHALRLKPDFIDGYINLAAALVAAGDMEGAVQAYVSALQYNPDLYCVRSDLGNLLKALGRLEEAKACYLKAIETQPNFAVAWSNLGCVFNAQGEIWLAIHHFEKAVTLDPNFLDAYINLGNVLKEARIFDRAVAAYLRALSLSPNHAVVHGNLACVYYEQGLIDLAIDTYRRAIELQPHFPDAYCNLANALKEKGSVAEAEDCYNTALRLCPTHADSLNNLANIKREQGNIEEAVRLYRKALEVFPEFAAAHSNLASVLQQQGKLQEALMHYKEAIRISPTFADAYSNMGNTLKEMQDVQGALQCYTRAIQINPAFADAHSNLASIHKDSGNIPEAIASYRTALKLKPDFPDAYCNLAHCLQ
# notes: O-GlcNAc transferase (OGT), human ncOGT (longest isoform, 1-1046, 13 TPR repeats), tetratricopeptide repeat region, residues 2-474; Unlabelled; this was not measured here; also called SUMO-OGT-TPR; SUMO-fused OGT-TPR
# B2: WT FUS N-terminal low-complexity region (LCRN), aa 1-214 (domain or fragment, human, UniProt P35637 1-214, looked up)
# chain: MASNDYTQQATQSYGAYPTQPGQGYSQQSSQPYGQQSYSGYSQSTDTSGYGQSSYSSYGQSQNTGYGTQSTPQGYGSTGGYGSSQSSQSSYGQQSSYPGYGQQPAPSSTSGSYGSSSQSSSYGQPQSGSYSQQPSYGGQQQSYGQQQSYNPPQGYGQQNQYNSSSGGGGGGGGGGNYGQDQSSMSSGGGSGGGYGNQDQSGGGGSGGYGQQDRG
# notes: FUS (fused in sarcoma), human, N-terminal low-complexity region, aa 1-214; 15N-labelled for NMR; also called WT FUS LCRN; FUS LCRN
# B3: Mut-F FUS N-terminal low-complexity region (LCRN), aa 1-214 (domain or fragment, human, UniProt P35637 1-214, looked up)
# chain: MASNDYTQQATQSYGAYPTQPGQGYSQQSSTPYAQASYSTYSPSTTTSAYGQSSYSSYGQSQNTGYATTSTPQAYPSTAPYATSPSSQSSYGQQSSYPAYTQQPAPTTTSASYATSSQSSSYGQPQSGSYSQQPSYGGQQQSYGQQQSYNPPQGYGQQNQYNSSSGGGGGGGGGGNYGQDQSSMSSGGGSGGGYGNQDQSGGGGSGGYGQQDRG
# notes: FUS (fused in sarcoma), human, N-terminal low-complexity region, aa 1-214, with the combined mutations of Mut-A, Mut-B and Mut-C; 15N-labelled for NMR; also called FUS Mut-F; Mut-F FUS LCRN
# Legend:
# Details in all cases: both partners purified
# [1] = biological target: B3; assay: NMR titration; 1H-15N HSQC of 20 uM 15N-labelled FUS LCRN (WT or Mut-F) without and with 32 uM unlabelled SUMO-OGT-TPR; 600 MHz, 5 °C, 40 mM KPO4, 125 mM NaCl, 0.5 mM EDTA, 0.5 mM benzamidine, 5 mM DTT, 10% D2O, pH 7.2; peak intensity ratios plus OGT-TPR/apo
# [2] = biological target: B2; assay: as above
# [3] = biological target: T1, TPR region of OGT (OGT-TPR, aa 2-474) not fused to SUMO (human, UniProt O15294 2-474); assay: NMR titration; 1H-15N HSQC of 15N-labelled FUS LCRN (WT or Mut-F) without and with OGT-TPR whose SUMO tag was removed; the samples with OGT-TPR phase separated, no quantitative comparison
# T1 construct: O-GlcNAc transferase (OGT), human ncOGT (longest isoform, 1-1046, 13 TPR repeats), tetratricopeptide repeat region, residues 2-474; Unlabelled; this was not measured here; also called OGT-TPR with the SUMO tag removed
# T1 sequence (looked up): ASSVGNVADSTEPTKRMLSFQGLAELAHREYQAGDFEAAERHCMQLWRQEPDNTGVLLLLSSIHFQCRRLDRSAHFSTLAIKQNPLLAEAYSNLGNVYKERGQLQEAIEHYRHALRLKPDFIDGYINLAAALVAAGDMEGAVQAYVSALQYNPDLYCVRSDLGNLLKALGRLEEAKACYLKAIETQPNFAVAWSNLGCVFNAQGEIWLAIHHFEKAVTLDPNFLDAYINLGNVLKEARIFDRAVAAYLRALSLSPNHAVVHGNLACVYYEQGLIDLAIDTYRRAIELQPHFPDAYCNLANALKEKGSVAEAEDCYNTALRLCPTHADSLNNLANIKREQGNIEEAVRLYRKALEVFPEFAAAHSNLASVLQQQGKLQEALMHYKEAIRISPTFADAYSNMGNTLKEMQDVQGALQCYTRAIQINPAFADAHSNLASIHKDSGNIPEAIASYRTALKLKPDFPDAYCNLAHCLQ
binder,measurement,setting,value
B1,average peak intensity ratio (plus OGT-TPR/apo),[1],0.36 ± 0.22
same,average peak intensity ratio (plus OGT-TPR/apo),[2],0.48
B2,binding result,[3],binds
B3,binding result,[3],binds
